The experiment has as its target Trypanosoma brucei ADAT3 (full-length, His-tagged) (Trypanosoma brucei). As to the kind of experiment: cryo-EM structure.

For orientation: stoichiometry N means a count of units in the complex or per binding partner. Turning to “Trypanosoma brucei ADAT2 (full-length, A87G/C117S) (enzyme)”, the stoichiometry N is 1.

The values are drawn from publication doi:10.1101/2022.06.16.496122.
